Results reported in patent US20260242483A1 (IMCHECK THERAPEUTICS, published 2026).
Blank lines part the entries; values can stand above or below the binder they belong to.

Experiments:
[1] = molecular target: T1, recombinant human BTN3A1-His (Sino Biological Cat. No. 15973-H08H) (human, UniProt O00481 30-254); experiment: SPR Biacore single cycle kinetics; BTN3A1-His captured via anti-His, F(ab′)2 analyte, bivalent analyte fit
T1 construct: Bought protein; also called BTN3A1 His-tagged antigen; CD277; not shown: C-terminal His tag
Method: (§1) All single cycle kinetic experiments were run at 25° C. with HBS-P+ running buffer (pH 7.4) containing 0.1% BSA (GE Healthcare, Little Chalfont, UK).
(§2) BTN3A1 His-tagged antigen (Sino Biological, Beijing, China) was diluted in running buffer to a final concentration of 0.4 μg/ml. At the start of each cycle, BTN3A1-His was captured onto Fc2 of CM5 sensor chip pre-coupled using a His capture kit (GE Healthcare, Little Chalfont, UK) with standard amine chemistry at a flow rate of 10 μl/min. An immobilization level (RL) of ~34 RU, 16 RU or 11 RU, the different theoretical values to obtain a RMax of ~50 RU was used for the analytes Fab, F(ab′) 2 and IgG respectively. The surface was then allowed to stabilize. Single cycle kinetic data was obtained with the purified samples (Fab, F(ab′)₂ and IgG) at a flow rate of 40 μl/min to minimize any potential mass transfer effects. The signal from the reference channel Fc1 (no antigen capture) was subtracted from that of Fc2 to correct for differences in non-specific binding to the reference surface. […] The association phase for the five injections of increasing concentrations was monitored for 240 seconds each time and a single dissociation phase was measured for 1400 seconds following the last injection of analyte. […] The kinetic constants were calculated for each variant (see Tables 10, 11 and 12).

[2] = molecular target: T1, recombinant human BTN3A1-His (Sino …); experiment: SPR Biacore multi-cycle kinetics; antibody captured on Protein A, BTN3A1-His analyte, 1:1 fit
[3] = molecular target: T2, BTN3A3-CFP on HEK293T BTN3KO cells (human, UniProt O00478 30-584); experiment: flow cytometry on HEK293T BTN3KO transiently transfected with BTN3A3-CFP, gated CFP+ (n = 5)
T2 construct: Transient transfection of BTN3A knock-out HEK293T; also called HEK293T BTN3KO + 3A3-CFP; not shown: CFP fusion partner

[4] = molecular target: T1, recombinant human BTN3A1-His (Sino …); experiment: SPR Biacore single cycle kinetics; BTN3A1-His captured via anti-His, IgG analyte, bivalent analyte fit
Method: as §1
BTN3A1 His-tagged antigen (Sino Biological, Beijing, China) was diluted in running buffer to a final concentration of 0.4 μg/ml. At the start of each cycle, BTN3A1-His was captured onto Fc2 of CM5 sensor chip pre-coupled using a His capture kit (GE Healthcare, Little Chalfont, UK) with standard amine chemistry at a flow rate of 10 μl/min. An immobilization level (RL) of ~34 RU, 16 RU or 11 RU, the different theoretical values to obtain a RMax of ~50 RU was used for the analytes Fab, F(ab′) 2 and IgG respectively. The surface was then allowed to stabilize. Single cycle kinetic data was obtained with the purified samples (Fab, F(ab′)₂ and IgG) at a flow rate of 40 μl/min to minimize any potential mass transfer effects. The signal from the reference channel Fc1 (no antigen capture) was subtracted from that of Fc2 to correct for differences in non-specific binding to the reference surface. The signal for BTN3A1-His blank runs (no analyte) were subtracted to correct for differences in surface stability. The association phase for the five injections of increasing concentrations was monitored for 240 seconds each time and a single dissociation phase was measured for 1400 seconds following the last injection of analyte. Regeneration of the chip surface was conducted using two injections of 10 mM glycine-HCL pH 1.5 followed by a stabilization period of 240 seconds. Raw sensorgrams were fitted with a 1:1 model for Fab samples and with a bivalent analyte model for F(ab′)₂ and IgG samples in agreement with the different valences of the analytes. The kinetic constants were calculated for each variant (see Tables 10, 11 and 12).

[5] = molecular target: T3, BTN3A2-CFP on HEK293T BTN3KO cells (human, UniProt P78410 30-334); experiment: flow cytometry on HEK293T BTN3KO transiently transfected with BTN3A2-CFP, gated CFP+ (n = 5)
T3 construct: Transient transfection of BTN3A knock-out HEK293T; also called HEK293T BTN3KO + 3A2-CFP; not shown: CFP fusion partner

[6] = molecular target: T4, BTN3A1-CFP on HEK293T BTN3KO cells (human, UniProt O00481 30-513); experiment: flow cytometry on HEK293T BTN3KO transiently transfected with BTN3A1-CFP, gated CFP+ (n = 4)
T4 construct: Transient transfection of BTN3A knock-out HEK293T; also called HEK293T BTN3KO + 3A1-CFP; not shown: CFP fusion partner

[7] = molecular target: T1, recombinant human BTN3A1-His (Sino …); experiment: SPR Biacore single cycle kinetics; BTN3A1-His captured via anti-His, IgG analyte, bivalent analyte fit (Kd 1)
Method: as §1, §2

[8] = molecular target: T1, recombinant human BTN3A1-His (Sino …); experiment: SPR Biacore single cycle kinetics; BTN3A1-His captured via anti-His, IgG analyte, bivalent analyte fit (Ka1)
Method: as §1, §2

T1 sequence (O00481 30-254 limits assumed): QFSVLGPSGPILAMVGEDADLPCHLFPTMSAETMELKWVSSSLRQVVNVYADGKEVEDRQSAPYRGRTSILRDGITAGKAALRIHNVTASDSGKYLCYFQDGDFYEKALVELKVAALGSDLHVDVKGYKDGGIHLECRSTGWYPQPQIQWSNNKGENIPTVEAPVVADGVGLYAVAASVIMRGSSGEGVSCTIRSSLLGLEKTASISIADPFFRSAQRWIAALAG
T3 sequence (P78410 30-334): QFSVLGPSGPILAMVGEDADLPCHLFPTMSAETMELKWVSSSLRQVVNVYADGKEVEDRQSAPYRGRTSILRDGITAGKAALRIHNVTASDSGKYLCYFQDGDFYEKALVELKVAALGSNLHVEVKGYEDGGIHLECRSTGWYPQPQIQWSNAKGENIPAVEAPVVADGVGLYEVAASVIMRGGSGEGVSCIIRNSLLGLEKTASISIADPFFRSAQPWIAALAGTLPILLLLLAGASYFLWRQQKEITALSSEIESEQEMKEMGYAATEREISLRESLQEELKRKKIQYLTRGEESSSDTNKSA
T2 sequence (O00478 30-584): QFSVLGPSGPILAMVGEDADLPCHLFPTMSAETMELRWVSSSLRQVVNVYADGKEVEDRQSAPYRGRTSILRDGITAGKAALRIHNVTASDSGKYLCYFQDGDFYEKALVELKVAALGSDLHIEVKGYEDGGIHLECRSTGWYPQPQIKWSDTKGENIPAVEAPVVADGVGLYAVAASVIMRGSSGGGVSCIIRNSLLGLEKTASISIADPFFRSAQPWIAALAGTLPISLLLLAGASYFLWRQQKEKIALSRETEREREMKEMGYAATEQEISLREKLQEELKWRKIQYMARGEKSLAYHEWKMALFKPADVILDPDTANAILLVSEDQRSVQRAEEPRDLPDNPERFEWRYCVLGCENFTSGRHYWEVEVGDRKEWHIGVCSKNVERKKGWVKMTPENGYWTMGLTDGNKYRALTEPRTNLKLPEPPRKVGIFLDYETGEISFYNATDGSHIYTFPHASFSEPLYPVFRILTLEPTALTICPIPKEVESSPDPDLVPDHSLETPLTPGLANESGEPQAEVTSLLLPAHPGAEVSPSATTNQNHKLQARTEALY
T4 sequence (O00481 30-513): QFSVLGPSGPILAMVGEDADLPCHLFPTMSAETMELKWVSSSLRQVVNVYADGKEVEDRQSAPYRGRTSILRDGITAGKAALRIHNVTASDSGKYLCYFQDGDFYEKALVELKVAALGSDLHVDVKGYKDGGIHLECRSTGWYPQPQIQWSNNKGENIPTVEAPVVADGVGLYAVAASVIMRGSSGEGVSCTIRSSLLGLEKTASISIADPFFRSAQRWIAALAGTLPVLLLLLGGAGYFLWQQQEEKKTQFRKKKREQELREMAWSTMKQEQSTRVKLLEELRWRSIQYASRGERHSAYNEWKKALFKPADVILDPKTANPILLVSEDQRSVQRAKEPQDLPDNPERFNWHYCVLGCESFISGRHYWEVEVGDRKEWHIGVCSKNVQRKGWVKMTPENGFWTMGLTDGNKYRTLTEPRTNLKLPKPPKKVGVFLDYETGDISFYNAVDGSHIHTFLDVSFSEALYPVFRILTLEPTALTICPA

Kd 2 [1]: 32.4 s⁻¹
B1: 7.2 VH2/VK1 F(ab′)2 (other)
heavy: QVQLVQSGAEVKKPGASVKLSCKASGYIFTRYYMYWVKQRPGQGLEWIGEINPNNGGTKFNEKFKNRATLTVDKSISTAYMELSRLRSDDTAVYYCSREDDYDGTPFAMDYWGQGTLVTVSS
light: not shown
notes: not shown: IgG4 CH1 and hinge up to the pepsin cleavage site

Kd 2 [1]: 54.6 s⁻¹
B2: 7.2 VH2/VK2 F(ab′)2 (other)
heavy: QVQLVQSGAEVKKPGASVKLSCKASGYIFTRYYMYWVKQRPGQGLEWIGEINPNNGGTKFNEKFKNRATLTVDKSISTAYMELSRLRSDDTAVYYCSREDDYDGTPFAMDYWGQGTLVTVSS
light: not shown
notes: as for B1

Kd [2]: 0.176 nM
B3: Chimeric 7.2 (VH0/Vκ0) (antibody, V domains shown)
VH: QVQLQQSGAELVKPGASVKLSCKASGYIFTRYYMYWVKQRPGQGLEWIGEINPNNGGTKFNEKFKNKATLTVDKFSSTAYMQLRSLTSEDSAVYYCSREDDYDGTPFAMDYWGQGTSVTVSS
VL: DIQMNQSPSSLSASLGDTITITCHASQNINVWLSWYQQKPGNIPKLLIYKASNLHTGVPSRFTGSGSGTGFTLTISSLQPEDIATYYCQQGQTYPYTFGGGTKLEIK
notes: not used; also called 7.2 VH0/Vk0; chimeric 7.2 antibody

EC50 [3]: 1.75 µg/mL
Kd 2 [4]: 44 s⁻¹
EC50 [5]: 1.88 µg/mL
EC50 [6]: 2.4 µg/mL
B4: mAb1 (antibody, human IgG1, kappa)
heavy: QVQLVQSGAEVKKPGASVKLSCKASGYIFTRYYMYWVKQRPGQGLEWIGEINPNNGGTKFNEKFKNRATLTVDKSISTAYMELSRLRSDDTAVYYCSREDDYDGTPFAMDYWGQGTLVTVSSASTKGPSVFPLAPSSKSTSGGTAALGCLVKDYFPEPVTVSWNSGALTSGVHTFPAVLQSSGLYSLSSVVTVPSSSLGTQTYICNVNHKPSNTKVDKRVEPKSCDKTHTCPPCPAPEFEGGPSVFLFPPKPKDTLMISRTPEVTCVVVDVSHEDPEVKFNWYVDGVEVHNAKTKPREEQYNSTYRVVSVLTVLHQDWLNGKEYKCKVSNKALPASIEKTISKAKGQPREPQVYTLPPSREEMTKNQVSLTCLVKGFYPSDIAVEWESNGQPENNYKTTPPVLDSDGSFFLYSKLTVDKSRWQQGNVFSCSVMHEALHNHYTQKSLSLSPG
light: not shown
notes: Humanized 7.2 (VH2/Vk1), silent IgG1 L247F/L248E/P350S, kappa; also called 7.2 VH2/VK1 IgG1; IgG1 7.2 VH2/VK1

Kd 2 [4]: 0.0241 s⁻¹
B5: mAb2 (antibody, human IgG1, kappa)
heavy: QVQLVQSGAEVKKPGASVKLSCKASGYIFTRYYMYWVKQRPGQGLEWIGEINPNNGGTKFNEKFKNRATLTVDKSISTAYMELSRLRSDDTAVYYCSREDDYDGTPFAMDYWGQGTLVTVSSASTKGPSVFPLAPSSKSTSGGTAALGCLVKDYFPEPVTVSWNSGALTSGVHTFPAVLQSSGLYSLSSVVTVPSSSLGTQTYICNVNHKPSNTKVDKRVEPKSCDKTHTCPPCPAPEFEGGPSVFLFPPKPKDTLMISRTPEVTCVVVDVSHEDPEVKFNWYVDGVEVHNAKTKPREEQYNSTYRVVSVLTVLHQDWLNGKEYKCKVSNKALPASIEKTISKAKGQPREPQVYTLPPSREEMTKNQVSLTCLVKGFYPSDIAVEWESNGQPENNYKTTPPVLDSDGSFFLYSKLTVDKSRWQQGNVFSCSVMHEALHNHYTQKSLSLSPG
light: not shown
notes: Humanized 7.2 (VH2/Vk2), silent IgG1 L247F/L248E/P350S, kappa; also called 7.2 VH2/VK2 IgG1; IgG1 7.2 VH2/VK2

koff [7]: 0.00379 s⁻¹
Kd 2 [4]: 8.6e-05 s⁻¹
kon [8]: 56300 M⁻¹ s⁻¹
B6: mAb3 (antibody, V domains shown)
VH: QVQLVQSGAEVKKPGASVKVSCKASGYTFNGYYIHWVRQAPGQGLEWMGWINSNSGGTKYAQKFQGRVTMTRDTSISTAYMELSRLRSDDTAVYYCARRHSDMIGYYYGMDVWGQGTTVTVSS
VL: DIQMTQSPSSVSASVGDRVTITCRASQGISSWLAWYQQKPGKAPKLLIYAASSLQSGVPSRFSGSGSGTDFTLTISSLQPEDFATYYCQQATDFPPTFGGGTKVEIKR

Kd [2]: 0.319 nM
B7: mAb6 (antibody, V domains shown)
VH: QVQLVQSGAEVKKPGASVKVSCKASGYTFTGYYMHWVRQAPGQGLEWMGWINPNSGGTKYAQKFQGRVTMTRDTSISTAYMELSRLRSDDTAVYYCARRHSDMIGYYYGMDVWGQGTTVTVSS
VL: DIQMTQSPSSLSASVGDRVTITCRASQSISLFLNWYQQKPGKAPKLLIYTASSLQSGVPSRFSGSGSGTDFTLTISSLQPEDFATYYCQQANSFPPTFGGGTKVDIKR
